Here are results for 1 molecule from patent US20080166345A1, “MEDICAMENTS COMPRISING GENE RECOMBINANT ANTIBODY AGAINST GANGLIOSIDE GD3” (KYOWA HAKKO KOGYO CO., LTD., priority 2001, published 2008).

In one assay the test system is B16-F10 cell. In words: Fluorescent antibody technique (flow cytometer), parent cell line. To be noted: antibody 5 μg/ml; FIG. 3. Type of assay: binding, mouse. The procedure: Each of 1×10^6 cells of the GD3 synthase gene transfectants B16-8-3 and B16-29-10 obtained in b. of the item (2) of Example 1 and the parent cell line B16-F10 cell were suspended in PBS, put into a microtube (manufactured by Treff) and centrifuged (2,000 rpm for 2 minutes) for washing the cells, 50 μl of the anti-GD3 human chimeric antibody KM871 (a solution prepared by adjusting to 5 μg/ml with 1% BSA-PBS, negative control was 1% BSA-PBS alone) was added thereto, followed by stirring, and the reaction was carried out at 4° C. for 1 hour. After the reaction and subsequent washing with PBS by centrifugation three times, 100 μl of biotin-labeled goat anti-human IgG (H+L) solution (manufactured by VECTOR, used by diluting 400 folds with 1% BSA-PBS) was added thereto, followed by stirring, and the reaction was carried out at 4° C. for 1 hour. After washing with PBS by centrifugation three times, 100 μl of a streptoavidin-labeled Cy5 pigment solution (Streptoavidin-RED670 manufactured by GIBCO, used by diluting 100 folds with 1% BSA-PBS) was added thereto, followed by stirring, and the reaction was carried out at 4° C. for 30 minutes. After the reaction and subsequent washing with PBS by centrifugation three times, the cells were again suspended in PBS to carry out the analysis using a flow cytometer EPICS Elite (manufactured by COULTER).
For orientation: In flow cytometry, cells or beads pass a laser one at a time.

Assay [1] in a line: Reactivity of purified antibodies with GD3 (ELISA). The format is binding. To be noted: antibody 10 μg/ml, 20 pmol/well; FIG. 22. How it is done:
Each ganglioside (2 nmol) was dissolved in […] of ethanol solution containing 10 μg of dipalmitoylphosphatidylcholine (manufactured by SIGMA) and 5 μg of cholesterol (manufactured by SIGMA). In each well of a 96 well plate for ELISA (manufactured by Greiner), 20 μl of the solution (becomes 20 pmol/well) or 20 μl of the solution diluted with ethanol was respectively dispensed, followed by air-drying, and then PBS containing 1% BSA (hereinafter referred to as “1% BSA-PBS”) was added in 100 μl/well and allowed to react at room temperature for 1 hour to thereby block remaining active groups. After discarding 1% BSA-PBS, culture supernatants of transformants or diluted solutions of humanized antibodies were added in 50 μl/well and allowed to react at room temperature for 1 hour. […] After the reaction and subsequent washing with Tween-PBS, an ABTS substrate solution (a solution prepared by dissolving 0.55 g of 2,2′-azinobis(3-ethylbenzothiazoline-6-sulfonic acid) in 1 L of 0.1 M citrate buffer (pH 4.2) and adding 1 μl/ml hydrogen peroxide just before the use) was added in 50 μl/well for color development and the absorbance at 415 nm (hereinafter referred to as “OD415”) was measured.
Reactivity of purified anti-GD3 CDR-grafted antibodies KM8869, KM8870 and KM8871 with GD3 (manufactured by DIA-IATRON) was measured by the ELISA shown in the item 2 of Reference Example. […]
For orientation: In an ELISA, binding on a coated surface is turned into a signal by an enzyme label.

For assay [2] the following is noted: human peripheral blood monocyte as effector; cited from earlier work.
The conditions of assay [3]: human serum as complement source; cited from earlier work.

B1: KM871: anti-GD3 human chimeric antibody; VH SEQ ID NO:49, VL SEQ ID NO:50, human IgG1 and κ C regions (antibody, listed as Mus musculus, V domains shown)
VH: EVTLVESGGDFVKPGGSLKVSCAASGFAFSHYAMSWVRQTPAKRLEWVAYISSGGSGTYYSDSVKGRFTISRDNAKNTLYLQMRSLRSEDSAMYFCTRVKLGTYYFDSWGQGTTLTVSS
VL: DIQMTQTASSLPASLGDRVTISCSASQDISNYLNWYQQKPDGTVKLLIFYSSNLHSGVPSRFSGGGSGTDYSLTISNLEPEDIATYFCHQYSKLPWTFGGGTKLEIKR
modifications: human IgG1 and kappa constant regions
As to B1, in the assay with B16-F10 cell, the reactivity with cells result is listed as “did not show reactivity”. Further, in assay [1], the binding to ganglioside result is “bound strongly”. In addition, the “ADCC activity in comparison with the original mouse-derived antibody” value in assay [2] is given as “increased”. Moreover, the “CDC activity in comparison with the original mouse-derived antibody” value in assay [3] is “increased”.
